According to the Human Domainome abundance scans (Beltran et al. 2025):
± gives the uncertainty stated by the source.

B1: Far upstream element-binding protein 3, residues 75 to 150; numbered along this chain, Q96I24 (parent)
chain: RTVITEEFKVPDKMVGFIIGRGGEQISRIQAESGCKIQIASESSGIPERPCVLTGTPESIEQAKRLLGQIVDRCRN

Variants of: B1
Experiment: abundance fitness (aPCA) (normalised: wild type 0, dead -1); higher = more abundant; growth selection in yeast, the domain comes from the species named
Settings: Homo sapiens

| Variant | abundance fitness |
| --- | --- |
| I4L | -0.081 ± 0.03 |
| I4Y | -0.006 ± 0.066 |
| G55M | -1.24 ± 0.1 |
| G55S | -0.827 ± 0.045 |
| I18H | -0.279 ± 0.058 |
| K13I | -0.286 ± 0.068 |
| V15Y | -0.141 ± 0.065 |
| V15A | -0.059 ± 0.03 |
| E48V | -0.127 ± 0.029 |
| E48D | 0.001 ± 0.045 |
| E48F | -0.09 ± 0.046 |
| C74Y | -0.126 ± 0.059 |
| C74D | -0.068 ± 0.058 |
| C74E | -0.041 ± 0.037 |
| E61C | -0.078 ± 0.042 |
| E61V | -0.046 ± 0.03 |
| K36A | -0.065 ± 0.034 |
| K36C | -0.116 ± 0.049 |
| K36M | -0.066 ± 0.042 |
| S43R | -0.079 ± 0.03 |
| S43Q | -0.055 ± 0.045 |

| Variant | abundance fitness |
| --- | --- |
| K9F | -0.031 ± 0.056 |
| L66Q | -0.072 ± 0.044 |
| L66I | -0.056 ± 0.074 |
| L66G | -0.134 ± 0.027 |
| P11M | -0.259 ± 0.043 |
| Q69N | -0.059 ± 0.057 |
| Q69W | -0.283 ± 0.038 |
| V52P | -0.931 ± 0.069 |
| D72G | -0.033 ± 0.026 |
| D72H | -0.023 ± 0.058 |
| D72N | -0.155 ± 0.061 |
| G22E | -0.044 ± 0.035 |
| G22T | -0.09 ± 0.041 |
| G22R | -0.012 ± 0.027 |
| G22I | -0.086 ± 0.078 |
| V10Q | -0.675 ± 0.047 |
| A40G | -0.018 ± 0.025 |
| A40I | -0.036 ± 0.07 |
| A40P | -0.024 ± 0.04 |
| A40Q | 0.044 ± 0.039 |
| G45S | -0.051 ± 0.032 |

| Variant | abundance fitness |
| --- | --- |
| S33I | -0.358 ± 0.088 |
| S33D | -0.648 ± 0.06 |
| I70F | -0.044 ± 0.05 |
| I70L | -0.035 ± 0.034 |
| I70V | 0.024 ± 0.031 |
| S59V | -0.284 ± 0.035 |
| S59H | -0.221 ± 0.062 |
| S59A | -0.045 ± 0.032 |
| S44Q | 0.006 ± 0.044 |
| E32A | -0.074 ± 0.034 |
| E32Y | -0.049 ± 0.059 |
| E32M | -0.045 ± 0.038 |
| R73S | -0.04 ± 0.033 |
| R73E | 0.043 ± 0.036 |
| R73W | -0.089 ± 0.039 |
| F17N | -0.141 ± 0.058 |
| F17P | -0.095 ± 0.047 |
| F17A | -0.013 ± 0.034 |
| F17I | -0.05 ± 0.07 |
| L53H | -1.09 ± 0.35 |
| L53K | -1.12 ± 0.1 |

| Variant | abundance fitness |
| --- | --- |
| L53P | -1.32 ± 0.17 |
| L53D | -0.96 ± 0.13 |
| L53T | -0.94 ± 0.077 |
| G23N | -0.058 ± 0.078 |
| G23C | -0.17 ± 0.04 |
| G23E | -0.037 ± 0.032 |
| P47H | -0.028 ± 0.05 |
| P47C | -0.027 ± 0.041 |
| P47I | -0.021 ± 0.051 |
| P47V | -0.041 ± 0.03 |
| P47S | 0.024 ± 0.034 |
| P47E | -0.037 ± 0.034 |
| T5S | -0.082 ± 0.039 |
| T5F | -0.201 ± 0.073 |
| T5K | -0.068 ± 0.052 |
| K64G | -0.658 ± 0.032 |
| K64M | -0.336 ± 0.042 |
| S27A | -0.033 ± 0.034 |
| S27W | -0.167 ± 0.035 |
| S27G | 0.004 ± 0.031 |
